Reference: publication PMC11276004

Assays:
[1] = target: YPet (Yellow fluorescent Protein for energy transfer); test: SEC-SAXS; synchrotron SAXS in line with SEC; 260 μM YPet or 230 μM mCLIFY injected, PBS, room temperature; SVD-EFA, mass from Qr and Porod
[2] = target: YPet (Yellow fluorescent Protein for energy transfer); test: SEC-MALS; in line with SAXS; 100 μl of 260 μM YPet or 230 μM mCLIFY injected, Shodex 804 column, PBS, room temperature; 53 μM (YPet) and 48 μM (mCLIFY) at peak
[3] = target: YPet (Yellow fluorescent Protein for energy transfer); test: AUC; sedimentation velocity on cleared bacterial lysates of expressing cultures, detection at 515 nm; 4.6 μM YPet in 14.3 mg/mL lysate, 6.2 μM mCLIFY in 13.7 mg/ml lysate
[4] = target: YPet (Yellow fluorescent Protein for energy transfer); test: AUC; sedimentation velocity, purified protein, 20 °C, PBS, 2-40 μM monomer, 40,000 rpm; c(s) fits in SEDFIT; monomer-dimer association model in SEDPHAT; constant is of dimer to monomers

stoichiometry N [1]: 2
stoichiometry N [2]: 2
stoichiometry N [3]: 2
Kd [4]: 3.4 µM
stoichiometry N [4]: 2
Substance: YPet (Yellow fluorescent Protein for energy transfer)
